Molecular target: rHuTNF (human, UniProt P01375 77-233)
Assay: cell-based or functional assay

Sequence of rHuTNF (P01375 77-233 limits assumed): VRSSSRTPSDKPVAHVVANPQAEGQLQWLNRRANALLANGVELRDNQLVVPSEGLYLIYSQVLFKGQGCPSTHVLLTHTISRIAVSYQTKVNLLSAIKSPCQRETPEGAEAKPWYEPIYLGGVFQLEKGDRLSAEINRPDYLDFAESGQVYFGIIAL

B1: MAK195F, F(ab')2 fragment of the murine IgG3 monoclonal anti-hTNFalpha antibody MAK195 (other)
light: DIVMTQSHKFMSTTVGDRVSITCKASQAVSSAVAWYQQKPGQSPKLLIYWASTRHTGVPDRFTGSGSVTDFTLTIHNLQAEDLALYYCQQHYSTPFTFGSGTKLEIKRADAAPTVSIFPPSSEQLTSGGASVVCFLNNFYPKDINVKWKIDGSERQNGVLNSWTDQDSKDSTYSMSSTLTLTKDEYERHNSYTCEATHKTSTSPIVKSFNRNEC
heavy: QVQLKESGPGLVAPSQSLSITCTVSGFSLTDYGVNWVRQPPGKGLEWLGMIWGDGSTDYDSTLKSRLSISKDNSKSQIFLKMNSLQTDDTARYYCAREWHHGPVAYWGQGTLVTVSAATTTAPSVYPLVPGCSDTSGSSVTLGCLVKGYFPEPVTVKWNYGALSSGVRTVSSVLQSGFYSLSSLVTVPSSTWPSQTVICNVAHPASKTELIKRIEPRIPKPSTPPGSSCPPGNILGGPSVF
modifications: N-terminal glutamine completely converted into pyroglutamic acid; partial O-glycosylation at SerH222 (about 70% of Fd' fragments non-glycosylated); deamidation of a single asparagine residue (AsnL157)
  relative biological activity (neutralisation of rHuTNF cytotoxicity on mouse L-929 cells; mean IC50 of reference standard / IC50 of sample x 100%): 102%

Reference: patent US20090148513A1 (AbbVie / Abbott, published 2009)
